Measured values as given in patent US11078465B2, “Alcohol dehydrogenase mutant and application thereof in synthesis of diaryl chiral alcohols” (Jiangnan University, priority 2018, dated 2021).
Substitutions are numbered along the chain they refer to. Names may count otherwise. “Also recorded” adds a separate entry of the source.

B1: E214N/S237C: asparagine for glutamate at position 214 and cysteine for serine at position 237 of SEQ ID No. 2 (protein)
chain: MSVLISGASGYIAKHIVRVLLEQNYKVIGTVRSQDKADKLLKQYNNPNLSYEIVPEIANLDAFDDIFKKHGKEIKYVIHAASPVNFGAKDLEKDLVIPAINGTKNMFEAIKKYAPDTVERVVMTASYASIMTPHRQNDPTLTLDEETWNPVTEENAYENVFTAYCASKTFAEKEAWKFVKENSDAVKFKLTTIHPSFVFGPQNFDEDVTKKLNNTCEIINGLLHAPFDTKVEKTHFCQFIDVRDVAKTHVLGFQKDELINQRLLLCNGAFSQQDIVNVFNEDFPELKGQFPPEDKDTDLNKGVTGCKIDNEKTKKLLAFEFTPFHKTIHDTVYQILHKEGRV
modifications: Protein translated from synthetic DNA
B2: E214R/S237C: arginine for glutamate at position 214 and cysteine for serine at position 237 of SEQ ID No. 2 (protein)
chain: B1 chain with N214R
modifications: Protein translated from synthetic DNA

How the values were obtained:
Type in all cases: biochemical
[1] = Stereoselectivity on different substrates; conditions: configuration in brackets
Experimental: (§1) In an embodiment of the present disclosure, a chromatographic analysis method is as follows: 100 μL of reactant liquid is taken, 500 μL of ethyl acetate is added, shaking is performed for 1-2 min, centrifugation is performed at 12,000 rpm for 2-5 min, supernatant liquid is taken into a centrifuge tube, after an organic phase naturally volatilizes completely, 500 μL of chromatographically pure ethanol is added, and chiral liquid chromatography and gas chromatography are performed to analyze the transformation rate and the ee value.
(§2) Method for determining optical purity ee:
(§3) As: molar concentration of (S)-CPMA obtained by liquid chromatography; and AR: molar concentration of (R)-CPMA obtained by liquid chromatography.
(§4) The reduction on prochiral carbonyl compounds by the alcohol dehydrogenase mutants obtained in Example 3 was studied. The pro-chiral carbonyl compounds include (4-chlorophenyl)-(pyridin-2-yl)-methanone (CPMK), phenyl-(pyridin-2-yl)-methanone, (4-chlorophenyl)-(phenyl)-methanone, (4-bromophenyl)(phenyl)methanone, (4-fluorophenyl)(phenyl)methanone, (4-methoxyphenyl)-(phenyl)-methanone, (4-nitrophenyl)(phenyl)methanone, 1-(pyridin-2-yl)ethanone, acetophenone, 4′-Chloroacetophenone, 4-chlorophenacyl chloride, ethyl 2-oxo-4-phenylbutanoate (OPBE), ethyl 4-chloro-3-oxobutanoate, and methyl 2-oxo-2-phenylacetate.

[2] = Kinetic analysis of alcohol dehydrogenase and mutants (NADPH oxidation, 340 nm, double reciprocal curve); conditions: substrate CPMK
Experimental: (§5) Adopting a total reaction system of 200 μL, including: 1.0 mM NADPH, 1.0 mM substrate CPMK and sodium phosphate buffer (PBS, 100 mM, pH 7.0), fully and evenly mixing, maintaining at 30° C. for 2 min, adding an appropriate amount of enzyme solution, and detecting the change in light absorption at 340 nm.
(§6) The enzyme activity was calculated by the following formula: Enzyme activity (U)=EW×V×10^3/(6220×I);
(§7) in the formula, EW is the change in absorbance at 340 nm in 1 min; V is the volume of a reaction solution in mL; 6220 is the molar extinction coefficient of NADPH in L/mol·cm); and 1 is the optical path distance in cm. One activity unit (U) corresponds to the amount of enzyme required to catalyze the oxidation of 1 μmol NADPH per minute under the above conditions.
A column used for purification was a nickel affinity column HisTrap FF crude, and purification was achieved through affinity chromatography using a histidine tag on recombinant protein. The nickel column was equilibrated with a solution A first, a crude enzyme solution was loaded, a penetrating peak was further eluted off using the solution A, and after equilibrium, a solution B (20 mM sodium phosphate, 500 mM NaCl, and 1000 mM imidazole, pH 7.4) was used for gradient elution to elute off the recombinant protein bound to the nickel column, so as to obtain the recombinant alcohol dehydrogenase mutant. The purified protein was subjected to activity measurement (CPMK as substrate, and NADPH as coenzyme) and SDS-PAGE analysis. […] The purified alcohol dehydrogenase protein was then replaced into a Tris-HCl (100 mM, pH 7.0) buffer using a Hi Trap Desalting column (GE Healthcare).
The activity of KpADH at different substrate concentrations and coenzyme concentrations was determined, and a double reciprocal curve was made based on the reciprocal of activity and substrate concentration to calculate kinetic parameters.

[3] = Stereoselectivity on different substrates; conditions: for Stereoselectivity (ee): configuration in brackets
Experimental: as §1, §2, §3, §4
All the products above were recrystallized from ethyl acetate and gave more than 99.9% optical purity.

[4] = Stereoselectivity (ee) of CPMK reduction, chiral liquid chromatography; conditions: for e.e.: product configuration in brackets
Experimental: as §1, §2, §3

[5] = Substrate specificity, specific activity
Experimental: as §5, §6, §7, §4

[6] = substrate [drawing 14], likely CPMK (values partly match Table 4)
[7] = substrate [drawing 10], acetophenone
[8] = substrate [drawing 11], 4-chloroacetophenone
[9] = substrate [drawing 12], 4-chlorobenzoyl chloride
[10] = substrate [drawing 16], (4-bromophenyl)-(phenyl)-methanone
[11] = substrate [drawing 17], p-nitrobenzophenone
[12] = substrate [drawing 6], 4-chlorophenacyl chloride
[13] = substrate [drawing 9], ethyl 4-chloro-3-oxobutanoate

Molecule | Stereoselectivity (ee) ([1]; substrate [drawing 13]) | Stereoselectivity (ee) [1, 6] | Stereoselectivity (ee) ([1]; substrate [drawing 15]) | Stereoselectivity (ee) ([1]; substrate [drawing 18]) | Kcat [2] [s⁻¹] | Km [2] [µM] | Vmax [2] [µM/min/mg] | Stereoselectivity (ee) [3, 7] | Stereoselectivity (ee) [3, 8] | Stereoselectivity (ee) [3, 9] | Stereoselectivity (ee) [3, 10] | Stereoselectivity (ee) [3, 11] | configuration of product / stereoselectivity in words [4] | e.e. [4] | specific activity ([5]; substrate [drawing 1]) [U/mg] | specific activity ([5]; substrate [drawing 2]) [U/mg] | specific activity ([5]; substrate [drawing 3]) [U/mg] | specific activity ([5]; substrate [drawing 4]) [U/mg] | specific activity ([5]; substrate [drawing 5]) [U/mg] | specific activity [5, 12] [U/mg] | other results
B1 | 51.5 (R) | 57.1 (S) | 57.1 (R) | 99.1 (S) | 5.87 ± 0.13 | 220 ± 20 | 8.80 ± 0.20 | 99.0 (R) | 97.4 (R) | 93.6 (R) | 91.9 (R) | 90.7 (R) | inversion from the R configuration to the S configuration; also recorded: (S)-CPMA | 43.6 (S) | 0.84 | 0.52 | 0.32 | 7.50 | 7.48 | 10.02 | ee ([3]; substrate p-nitrobenzophenone, (S)): 99.1%; specific activity ([5]; substrate [drawing 7]): 17.10 U/mg; specific activity ([5]; substrate [drawing 8]): 13.21 U/mg; specific activity [5, 13]: 5.80 U/mg
B2 | 50.1 (R) | 48.3 (S) | 49.8 (R) | 91.9 (R) | 10.4 ± 0.11 | 880 ± 20 | 15.6 ± 0.16 | 98.3 (R) | 97.2 (R) | 92.9 (R) | 89.9 (R) | 88.0 (R) | inversion from the R configuration to the S configuration; also recorded: (S)-CPMA | 48.3 (S) | 0.26 | 0.18 | 0.36 | 4.21 | 1.96 | 6.69 | specific activity ([5]; substrate [drawing 7]): 22.48 U/mg; specific activity ([5]; substrate [drawing 8]): 30.69 U/mg; specific activity [5, 13]: 1.88 U/mg
